Experimental data as given in paper PMC3118794.

Key:
[1] = molecular target: actin of “ghost” muscle fibers (rabbit (endogenous in psoas muscle fibers)) (UniProt P68135); experiment: reconstitution into ghost muscle fibers, washes, SDS-PAGE; 20 µM labeled Tm added to ghost fibers in RB buffer for 15 hours at 4°C, then 20 µM troponin complex and 20 µM S1; unbound proteins removed by repeated washes with rigor buffer; 12% SDS gel quantified; settings: scale: actin per S1
[2] = molecular target: “ghost” fiber reconstituted with labeled Tm (rabbit (endogenous in psoas muscle fibers) | not stated) (UniProt P68135); experiment: as above; settings: scale: actin per TnI

Chain of myosin subfragment-1 (domain or fragment) (Q28641 whole entry, the tested form may be a part): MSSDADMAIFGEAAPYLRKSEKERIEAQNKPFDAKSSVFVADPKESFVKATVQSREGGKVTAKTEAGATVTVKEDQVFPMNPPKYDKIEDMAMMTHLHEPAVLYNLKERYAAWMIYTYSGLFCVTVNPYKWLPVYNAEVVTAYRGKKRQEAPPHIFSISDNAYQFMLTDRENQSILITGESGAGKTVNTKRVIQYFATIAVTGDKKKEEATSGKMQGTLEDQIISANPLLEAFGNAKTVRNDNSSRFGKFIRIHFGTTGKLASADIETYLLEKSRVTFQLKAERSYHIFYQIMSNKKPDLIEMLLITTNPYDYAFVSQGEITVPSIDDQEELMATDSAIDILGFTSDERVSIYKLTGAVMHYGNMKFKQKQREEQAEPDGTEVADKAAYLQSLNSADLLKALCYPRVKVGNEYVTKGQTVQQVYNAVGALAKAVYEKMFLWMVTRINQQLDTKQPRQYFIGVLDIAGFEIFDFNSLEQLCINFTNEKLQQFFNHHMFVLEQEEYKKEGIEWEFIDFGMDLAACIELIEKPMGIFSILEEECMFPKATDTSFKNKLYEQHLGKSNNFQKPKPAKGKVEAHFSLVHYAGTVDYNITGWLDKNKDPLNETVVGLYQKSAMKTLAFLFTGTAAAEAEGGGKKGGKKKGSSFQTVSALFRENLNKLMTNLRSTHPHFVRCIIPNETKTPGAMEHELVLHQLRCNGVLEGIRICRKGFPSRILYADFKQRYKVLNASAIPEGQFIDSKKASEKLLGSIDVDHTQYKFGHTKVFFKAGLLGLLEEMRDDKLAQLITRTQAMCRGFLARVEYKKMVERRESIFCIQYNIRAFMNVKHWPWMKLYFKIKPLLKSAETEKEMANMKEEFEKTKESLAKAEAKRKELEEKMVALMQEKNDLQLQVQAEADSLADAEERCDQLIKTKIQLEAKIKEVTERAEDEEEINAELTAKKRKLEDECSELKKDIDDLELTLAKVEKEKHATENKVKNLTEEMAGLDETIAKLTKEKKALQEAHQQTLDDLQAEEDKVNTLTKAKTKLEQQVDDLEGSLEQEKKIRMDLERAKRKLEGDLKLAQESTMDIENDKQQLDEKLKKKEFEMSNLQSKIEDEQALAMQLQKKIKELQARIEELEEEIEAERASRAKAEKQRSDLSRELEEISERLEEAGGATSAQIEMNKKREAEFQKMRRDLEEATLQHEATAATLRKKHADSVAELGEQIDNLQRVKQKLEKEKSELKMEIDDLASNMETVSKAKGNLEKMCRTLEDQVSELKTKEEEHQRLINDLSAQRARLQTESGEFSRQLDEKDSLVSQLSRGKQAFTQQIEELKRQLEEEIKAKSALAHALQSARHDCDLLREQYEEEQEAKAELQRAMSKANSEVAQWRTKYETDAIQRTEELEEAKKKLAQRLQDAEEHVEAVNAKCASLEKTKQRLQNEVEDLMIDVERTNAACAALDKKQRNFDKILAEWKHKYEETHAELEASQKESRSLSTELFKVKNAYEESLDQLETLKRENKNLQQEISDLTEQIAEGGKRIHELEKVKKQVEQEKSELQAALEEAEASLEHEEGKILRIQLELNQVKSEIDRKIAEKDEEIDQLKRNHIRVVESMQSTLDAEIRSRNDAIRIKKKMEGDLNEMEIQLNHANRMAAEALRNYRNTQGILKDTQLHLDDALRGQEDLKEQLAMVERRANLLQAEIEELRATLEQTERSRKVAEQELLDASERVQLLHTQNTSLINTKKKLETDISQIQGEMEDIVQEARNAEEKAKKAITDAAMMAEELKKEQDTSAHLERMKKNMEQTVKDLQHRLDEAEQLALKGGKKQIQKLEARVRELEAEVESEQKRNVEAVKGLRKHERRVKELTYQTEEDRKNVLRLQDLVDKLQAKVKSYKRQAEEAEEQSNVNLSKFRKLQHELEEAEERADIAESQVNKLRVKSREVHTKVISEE
Chain of skeletal troponin complex (P02586 whole entry): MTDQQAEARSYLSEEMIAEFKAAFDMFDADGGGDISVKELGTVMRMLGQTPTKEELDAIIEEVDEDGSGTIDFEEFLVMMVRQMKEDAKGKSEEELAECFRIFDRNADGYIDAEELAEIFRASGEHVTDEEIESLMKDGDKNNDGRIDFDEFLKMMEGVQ
Chain of skeletal troponin complex (P02643 whole entry): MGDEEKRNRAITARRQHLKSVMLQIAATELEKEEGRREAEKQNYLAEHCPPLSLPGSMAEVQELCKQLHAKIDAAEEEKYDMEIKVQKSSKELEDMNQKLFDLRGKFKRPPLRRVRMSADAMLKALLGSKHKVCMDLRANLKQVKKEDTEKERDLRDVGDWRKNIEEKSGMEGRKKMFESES
Chain of skeletal troponin complex (P02641 whole entry): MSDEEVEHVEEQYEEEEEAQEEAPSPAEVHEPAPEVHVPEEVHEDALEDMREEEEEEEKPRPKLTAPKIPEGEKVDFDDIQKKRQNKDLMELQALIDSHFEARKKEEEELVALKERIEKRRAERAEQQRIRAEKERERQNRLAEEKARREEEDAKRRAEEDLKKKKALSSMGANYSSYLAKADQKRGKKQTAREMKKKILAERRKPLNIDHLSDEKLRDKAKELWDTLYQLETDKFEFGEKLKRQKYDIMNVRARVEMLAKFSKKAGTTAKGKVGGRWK

| ratio of the S1:actin intensity in reconstituted ghost fibers (SDS-PAGE) [1] | ratio of TnI:actin in the reconstituted fiber (SDS-PAGE) [2] | Substance |
| --- | --- | --- |
| 1 |  | myosin subfragment-1 (domain or fragment) |
|  | 4.5 | skeletal troponin complex (from UniProt P02586 1-160; P02643 1-182; P02641 1-279) |
